{"source": "patent US20230212312A1", "molecular_target": "complement factor C1q", "sequence (P02745 23-245, chain 1 of 3)": "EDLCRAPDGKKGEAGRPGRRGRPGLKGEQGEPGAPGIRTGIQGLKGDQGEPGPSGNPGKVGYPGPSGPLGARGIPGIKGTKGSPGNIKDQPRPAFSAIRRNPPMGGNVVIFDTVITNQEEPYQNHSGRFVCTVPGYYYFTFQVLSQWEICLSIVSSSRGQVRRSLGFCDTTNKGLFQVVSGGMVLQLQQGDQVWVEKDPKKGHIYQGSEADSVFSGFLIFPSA", "sequence (P02746 28-253, chain 2 of 3, further chain)": "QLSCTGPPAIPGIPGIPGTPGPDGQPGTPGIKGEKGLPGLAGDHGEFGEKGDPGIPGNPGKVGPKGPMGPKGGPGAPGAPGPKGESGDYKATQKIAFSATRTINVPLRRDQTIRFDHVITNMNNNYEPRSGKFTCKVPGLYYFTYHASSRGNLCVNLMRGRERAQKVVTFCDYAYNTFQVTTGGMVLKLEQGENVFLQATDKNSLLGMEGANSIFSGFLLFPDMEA", "sequence (P02747 29-245, chain 3 of 3, further chain)": "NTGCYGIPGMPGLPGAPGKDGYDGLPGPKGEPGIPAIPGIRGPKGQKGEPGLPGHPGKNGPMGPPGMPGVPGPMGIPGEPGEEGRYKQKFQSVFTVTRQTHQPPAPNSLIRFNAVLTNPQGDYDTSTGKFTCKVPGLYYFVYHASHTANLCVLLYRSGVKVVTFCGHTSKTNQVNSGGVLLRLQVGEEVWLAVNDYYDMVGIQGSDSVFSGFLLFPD", "assay": "FACS, C1q on antibody-coated BT-474 cells, 10 ug/ml each"}
{"substance": "combination of trastuzumab and pertuzumab", "values": [{"measurement": "PE-signal (geomean)", "value": 2160}]}
